In US20260055173A1:

Assays:
[1] = target: monkey PD-1 (ACRO, His tag) (monkey) (UniProt B0LAJ3); assay: ELISA, monkey PD-1 (His tag) coated, anti-human IgG Fc-HRP
[2] = target: human VEGF (ACRO, His tag) (human) (UniProt P15692); assay: ELISA, human VEGF (His tag) coated, anti-human IgG Fc-HRP
[3] = target: biotin-labeled human VEGF (ACRO, biotinylated protein) (human) (UniProt P15692); assay: dual (bridging) ELISA: human PD-1 (His tag) coated, antibody, then biotinylated human VEGF, streptavidin-HRP
biotin-labeled human VEGF (ACRO, biotinylated protein) (human), sequence (P15692 other isoform, or with tags, fused parts or gaps limits assumed): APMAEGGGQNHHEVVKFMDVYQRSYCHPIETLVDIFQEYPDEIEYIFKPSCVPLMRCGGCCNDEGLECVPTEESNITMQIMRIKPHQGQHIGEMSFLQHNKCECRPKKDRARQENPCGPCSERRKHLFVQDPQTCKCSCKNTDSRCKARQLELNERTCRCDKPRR

monkey PD-1 (ACRO, His tag) (monkey), sequence (B0LAJ3 entry or part of it limits assumed, form in doubt): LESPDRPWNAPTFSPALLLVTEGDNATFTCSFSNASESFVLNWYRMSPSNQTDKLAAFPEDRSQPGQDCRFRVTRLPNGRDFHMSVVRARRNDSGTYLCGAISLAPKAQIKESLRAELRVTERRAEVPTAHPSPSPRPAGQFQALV
human VEGF (ACRO, His tag) (human), sequence (P15692 other isoform, or with tags, fused parts or gaps limits assumed): as the sequence (P15692 other isoform, or with tags, fused parts or gaps limits assumed) above

Substance | EC50 [1] [nM] | TOP OD [1] [OD450] | TOP OD [2] [OD450] | TOP OD [3] [OD450]
Keytruda (antibody) | 0.187 | 3.08 | – | –
Opdivo (antibody) | 0.153 | 2.99 | 0.048 | 0.048
